From the supplement of paper PMC9112550, “Optimization of the antimicrobial peptide Bac7 by deep mutational scanning” (BMC Biology, 2022)

Each sequence was assayed on Escherichia coli TOP10 (assay: shrunken log2 fold change of peptide-encoding DNA abundance (4.5 h post-induction vs induction); higher = less antimicrobial activity (less host growth inhibition)). Settings: time post-induction: 4.5 h; library: site-saturation at positions 5, 18, 19, 20.
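Note: peptides expressed intracellularly from a pBAD plasmid library in pooled LB shake-flask culture, induced with 0.3% L-arabinose, DNA abundance read by NGS, three biological replicates, DESeq2 with apeglm shrinkage.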

Sequence | shrunken log2 fold change
RRIRSRPPRLPRPRPRPGHGPRP | -0.254
RRIRKRPPRLPRPRPRPHSAPRP | 0.246
RRIRKRPPRLPRPRPRPEWYPRP | -0.204
RRIRHRPPRLPRPRPRPLEYPRP | -0.168
RRIRVRPPRLPRPRPRPYPHPRP | -0.342
RRIRARPPRLPRPRPRPRSMPRP | 0.42
RRIRGRPPRLPRPRPRPYYNPRP | -0.48
RRIRFRPPRLPRPRPRPHITPRP | -0.734
RRIRFRPPRLPRPRPRPLGVPRP | 0.0349
RRIRDRPPRLPRPRPRPWDYPRP | -0.00965
RRIRRRPPRLPRPRPRPGDYPRP | -0.045
RRIRTRPPRLPRPRPRPCQIPRP | 0.0623
RRIRNRPPRLPRPRPRPDDMPRP | -0.107
RRIRCRPPRLPRPRPRPDAAPRP | 1.03
RRIRYRPPRLPRPRPRPKANPRP | -0.512
RRIRFRPPRLPRPRPRPIAQPRP | -0.0298
RRIRQRPPRLPRPRPRPWKLPRP | -0.09
RRIRHRPPRLPRPRPRPAWKPRP | -0.0109
RRIRFRPPRLPRPRPRPMQPPRP | 0.287
RRIRVRPPRLPRPRPRPDYVPRP | -0.406
RRIRYRPPRLPRPRPRPGYMPRP | -0.716
RRIRLRPPRLPRPRPRPKNSPRP | -0.27

Sequence | shrunken log2 fold change
RRIRTRPPRLPRPRPRPPYLPRP | -0.365
RRIRQRPPRLPRPRPRPSMDPRP | -0.271
RRIRHRPPRLPRPRPRPQDAPRP | -0.00992
RRIRARPPRLPRPRPRPYCLPRP | -0.729
RRIRIRPPRLPRPRPRPNHRPRP | 0.0615
RRIRIRPPRLPRPRPRPDSKPRP | -0.325
RRIRPRPPRLPRPRPRPTKAPRP | -0.191
RRIRRRPPRLPRPRPRPVFAPRP | 0.455
RRIRCRPPRLPRPRPRPDTHPRP | -0.716
RRIRWRPPRLPRPRPRPVEEPRP | 0.0996
RRIRSRPPRLPRPRPRPKRYPRP | -0.163
RRIRHRPPRLPRPRPRPSSAPRP | -0.0336
RRIRHRPPRLPRPRPRPFKVPRP | -0.0904
RRIRHRPPRLPRPRPRPREVPRP | 0.151
RRIRHRPPRLPRPRPRPQTCPRP | -0.653
RRIRYRPPRLPRPRPRPPFPPRP | -0.0826
RRIRMRPPRLPRPRPRPPAWPRP | 1.22
RRIRFRPPRLPRPRPRPDPKPRP | 0.117
RRIRVRPPRLPRPRPRPVMFPRP | -0.305
RRIRYRPPRLPRPRPRPMISPRP | -0.126
RRIRYRPPRLPRPRPRPPQEPRP | 1.9
RRIRSRPPRLPRPRPRPLSMPRP | -0.115

Sequence | shrunken log2 fold change
RRIRNRPPRLPRPRPRPSALPRP | -0.213
RRIRERPPRLPRPRPRPCYNPRP | -0.137
RRIRWRPPRLPRPRPRPPWTPRP | 0.688
RRIRYRPPRLPRPRPRPGKVPRP | -0.204
RRIRERPPRLPRPRPRPLSPPRP | -0.17
RRIRNRPPRLPRPRPRPWCTPRP | -0.205
RRIRERPPRLPRPRPRPVNRPRP | -0.294
RRIRVRPPRLPRPRPRPQSVPRP | -0.0666
RRIRNRPPRLPRPRPRPTNPPRP | -0.216
RRIRFRPPRLPRPRPRPRGHPRP | 0.348
RRIRIRPPRLPRPRPRPAPAPRP | 0.31
RRIRWRPPRLPRPRPRPRDVPRP | 0.333
RRIRCRPPRLPRPRPRPYCVPRP | -0.517
RRIRHRPPRLPRPRPRPPTLPRP | 0.246
RRIRVRPPRLPRPRPRPHNMPRP | -0.389
RRIRQRPPRLPRPRPRPQWHPRP | -0.0165
RRIRNRPPRLPRPRPRPTVCPRP | -0.0905
RRIRLRPPRLPRPRPRPIWQPRP | 0.0488
RRIRIRPPRLPRPRPRPLFAPRP | -0.0892
RRIRNRPPRLPRPRPRPCFLPRP | -0.389
RRIRYRPPRLPRPRPRPRQNPRP | 0.345
RRIRPRPPRLPRPRPRPCAKPRP | -0.0518

Sequence | shrunken log2 fold change
RRIRDRPPRLPRPRPRPWRCPRP | 0.26
RRIRHRPPRLPRPRPRPMDCPRP | -0.0499
RRIRFRPPRLPRPRPRPLVIPRP | -0.78
RRIRERPPRLPRPRPRPHMGPRP | -0.00822
RRIRTRPPRLPRPRPRPPGWPRP | 0.758
RRIRKRPPRLPRPRPRPDGYPRP | -0.0936
RRIRSRPPRLPRPRPRPAFNPRP | 0.0949
RRIRARPPRLPRPRPRPRQGPRP | 0.605
RRIRFRPPRLPRPRPRPDVEPRP | 0.00816
RRIRLRPPRLPRPRPRPVMCPRP | 0.142
RRIRKRPPRLPRPRPRPSFLPRP | 0.104
RRIRQRPPRLPRPRPRPKDAPRP | 0.0166
RRIRLRPPRLPRPRPRPGVSPRP | -0.161
RRIRNRPPRLPRPRPRPQIGPRP | 0.0326
RRIRHRPPRLPRPRPRPVVDPRP | -0.109
RRIRDRPPRLPRPRPRPMQAPRP | -0.00208
RRIRWRPPRLPRPRPRPHNIPRP | -0.691
RRIRYRPPRLPRPRPRPRIPPRP | -0.353
RRIRTRPPRLPRPRPRPLVHPRP | -0.282
RRIRWRPPRLPRPRPRPRTNPRP | 0.0699
RRIRFRPPRLPRPRPRPSKHPRP | 0.0257
RRIRCRPPRLPRPRPRPTYMPRP | -0.432

Sequence | shrunken log2 fold change
RRIRMRPPRLPRPRPRPELYPRP | 0.0658
RRIRFRPPRLPRPRPRPLDSPRP | -0.0455
RRIRWRPPRLPRPRPRPTQWPRP | 0.346
RRIRTRPPRLPRPRPRPNIPPRP | -0.593
RRIRERPPRLPRPRPRPMRWPRP | 0.472
RRIRLRPPRLPRPRPRPVDYPRP | -0.434
RRIRFRPPRLPRPRPRPWNGPRP | 0.228
RRIRERPPRLPRPRPRPICTPRP | -0.249
RRIRVRPPRLPRPRPRPLFLPRP | -0.417
RRIRVRPPRLPRPRPRPTNNPRP | -0.398
RRIRHRPPRLPRPRPRPPNAPRP | 0.257
RRIRLRPPRLPRPRPRPSPGPRP | 0.0266
RRIRERPPRLPRPRPRPFKTPRP | -0.0273
RRIRTRPPRLPRPRPRPKVFPRP | -0.0334
RRIRNRPPRLPRPRPRPYDSPRP | -0.284
RRIRDRPPRLPRPRPRPLAQPRP | 0.83
RRIRHRPPRLPRPRPRPCTEPRP | -0.138
RRIRKRPPRLPRPRPRPTRWPRP | 0.413
RRIRFRPPRLPRPRPRPPWGPRP | 0.399
RRIRYRPPRLPRPRPRPQFQPRP | -0.718
RRIRFRPPRLPRPRPRPYHQPRP | -0.963
